# Numbering of substitutions follows the chain as printed.
# B1: PcOxP_DB04_A11 (human IgG1) (antibody, V domains shown)
# VH: EVQLLESGGGLVQPGGSLRLSCAASGFTFSDYYMEWVRQAPGKGLEWVAASRNKANTYTTEYADSVKGRFTISRDNSKNTLYLQMNSLRAEDTAVYYCARDYYGSSYWYFDVWGQGTLVTVSS
# VL: DIVMTQSPDSLAVSLGERATINCTASESVLSSKHKKNYLAWYQQKPGQPPKLLIYGASTRYIGVPDRFSGSGSGTDFTLTISSLQAEDVAVYYCAQFYSYPLTFGGGTKVEIK
# B2: PcOxP_DB02_H07 (human IgG1) (antibody, V domains shown)
# VH: B1 VH with D31S, T57D
# VL: B1 VL with V29L, L30Y, K36V, N37H, T59N, I62N, S99T
# B3: PcOxP_DB01_E05 (human IgG1) (antibody, V domains shown)
# VH: B1 VH with T57D
# VL: DIQMTQSPSSLSASVGDRVTITCTASESLYSSKHKVNYLAWYQQKPGKAPKLLIYGASNRYIGVPSRFSGSGSGTDFTLTISSLQPEDFATYYCAQFYQYPLTFGGGTKVEIK
# B4: PcOxP_DB01_F11 (human IgG1) (antibody, V domains shown)
# VH: B1 VH with D31S, T57D, F110Y
# VL: B1 VL with V29L, L30Y, K36V, N37H, T59N
# B5: PcOxP_DB01_D01 (human IgG1) (antibody, V domains shown)
# VH: B1 VH with D31S, T57D
# VL: B1 VL with V29L, L30Y, S32P, K36V, N37H, T59N, S99I
# B6: PcOxP_DB02_A05 (human IgG1) (antibody, V domains shown)
# VH: B1 VH with F29G, Y32F, A55W, T57D
# VL: B1 VL with V29L, L30Y, K36V, N37H, S58G, T59N
# B7: PcOxP_DB03_B09 (human IgG1) (antibody, V domains shown)
# VH: B1 VH with D31S, T57D
# VL: B1 VL with V29L, L30Y, K36V, N37H, S58A, T59N
# B8: PcOxP_DB03_E01 (human IgG1) (antibody, V domains shown)
# VH: B1 VH with T57D, T60V
# VL: B3 VL with N37H, A57T, Q99E
# B9: PcOxP_DB01_G10 (human IgG1) (antibody, V domains shown)
# VH: B1 VH with Y32F, A55N, T57D
# VL: B1 VL with T24K, E27Q, V29L, L30Y, N37H, T59N, I62P, S99R
# B10: PcOxP_DB02_G04 (human IgG1) (antibody, V domains shown)
# VH: B1 VH with N53W, T57D
# VL: B1 VL with T24K, E27Q, S31Y, H34N, N37H, T59N, Y61Q, S99V
# B11: PcOxP_DB01_H04 (human IgG1) (antibody, V domains shown)
# VH: B1 VH with T28A, Y32F, T57D, S106H
# VL: B3 VL with N37H, R60L, Y61Q, I62S, Q99Y
# B12: PcOxP_DB01_F01 (human IgG1) (antibody, V domains shown)
# VH: B1 VH with T28P, Y32F, T57D, S106P
# VL: B1 VL with L30Y, H34N, N37H, T59N, S99T
# B13: PcOxP_DB03_A09 (human IgG1) (antibody, V domains shown)
# VH: B1 VH with T57D
# VL: B3 VL with N37H, Y61G, Q99S
# B14: PcOxP_DB01_F04 (human IgG1) (antibody, V domains shown)
# VH: B1 VH with D31S, A55Y, T57D
# VL: B3 VL with N37H, S58V, Q99R
# B15: PcOxP_DB03_G07 (human IgG1) (antibody, V domains shown)
# VH: B1 VH with Y32H, T57D, S105Q
# VL: B3 VL with N37H, Q99S
# B16: PcOxP_DB01_B09 (human IgG1) (antibody, V domains shown)
# VH: B1 VH with T57D
# VL: B3 VL with N37H, I62T, Q99H
# B17: PcOxP_DB03_D08 (human IgG1) (antibody, V domains shown)
# VH: B1 VH with T28W, Y32F, T57D, S106A
# VL: B3 VL with N37H, Q99S
# B18: PcOxP_DB02_C01 (human IgG1) (antibody, V domains shown)
# VH: B1 VH with Y32A, T57D
# VL: B3 VL with N37H, Q99S
# B19: PcOxP_DB04_G01 (human IgG1) (antibody, V domains shown)
# VH: B1 VH with A55W, T57D, G104L
# VL: B1 VL with T24K, E27Q, H34N, K35N, K36V, T59N, S99Q
# B20: PcOxP_DB01_F06 (human IgG1) (antibody, V domains shown)
# VH: B1 VH with F27D, Y32F, T57D
# VL: DIVMTQSPDSLAVSLGERATINCKSSQSLYYSSNKKNYLAWYQQKPGQPPKLLIYGASNRYGGVPDRFSGSGSGTDFTLTISSLQAEDVAVYYCAQFYRYPLTFGGGTKVEIK
# B21: PcOxP_DB04_E08 (human IgG1) (antibody, V domains shown)
# VH: B1 VH with F29S, Y32F, M34L, A55W, T57D
# VL: B1 VL with V29L, L30Y, K36V, N37H, A57V, T59N
# B22: PcOxP_DB01_A06 (human IgG1) (antibody, V domains shown)
# VH: B1 VH with T57D
# VL: B3 VL with N37H, Q96E, Q99S
# B23: PcOxP_DB03_C12 (human IgG1) (antibody, V domains shown)
# VH: B1 VH with T57D
# VL: B3 VL with N37H, I62G, Q99S
# B24: PcOxP_DB01_D11 (human IgG1) (antibody, V domains shown)
# VH: B1 VH with D31S, T57D, F110N
# VL: B1 VL with V29L, L30Y, H34W, K36V, N37H, T59N
# B25: PcOxP_DB04_A09 (human IgG1) (antibody, V domains shown)
# VH: B1 VH with A55W, T57D
# VL: B3 VL with S26E, N37H, R60L, I62S, Q99S
# B26: PcOxP_DB03_C03 (human IgG1) (antibody, V domains shown)
# VH: B1 VH with Y32F, A55Y, T57D
# VL: B3 VL with N37H, Q99S
# B27: PcOxP_DB02_A06 (human IgG1) (antibody, V domains shown)
# VH: B1 VH with Y32Q, T57D
# VL: B3 VL with N37H, A57L, Q99S
# B28: PcOxP_DB02_F10 (human IgG1) (antibody, V domains shown)
# VH: B1 VH with Y32Q, T57D
# VL: B1 VL with A25S, E27Q, K35N, T59N, I62W
# B29: PcOxP_DB01_B06 (human IgG1) (antibody, V domains shown)
# VH: B1 VH with D31S, A55Y, T57D, Y107T
# VL: B1 VL with V29L, L30Y, K36V, N37H, T59N
# B30: PcOxP_DB01_H08 (human IgG1) (antibody, V domains shown)
# VH: B1 VH with F29H, Y32F, T57D
# VL: DIQMTQSPSSLSASVGDRVTITCRASESISSSKHKHYLAWYQQKPGKAPKLLIYGASNRYIGVPSRFSGSGSGTDFTLTISSLQPEDFATYYCAQFYVYPLTFGGGTKVEIK
# B31: PcOxP_DB03_G12 (human IgG1) (antibody, V domains shown)
# VH: B1 VH with A55Y, T57D
# VL: B1 VL with T24K, A25S, L30Y, N37H, T59N
# B32: PcOxP_DB01_C04 (human IgG1) (antibody, V domains shown)
# VH: B1 VH with T28Q, Y32F, T57D
# VL: B3 VL with N37H, Q99Y
# B33: PcOxP_DB01_H02 (human IgG1) (antibody, V domains shown)
# VH: B1 VH with D31S, T57D
# VL: B1 VL with E27S, V29L, L30Y, K36V, N37H, T59N
# B34: PcOxP_DB02_B04 (human IgG1) (antibody, V domains shown)
# VH: B1 VH with A55W, T57D
# VL: B1 VL with V29L, L30Y, K36V, N37H, T59N
# B35: PcOxP_DB04_E05 (human IgG1) (antibody, V domains shown)
# VH: B1 VH with F27N, Y32F, T57Y
# VL: B1 VL with V29L, L30Y, K36V, N37H, T59N
# B36: PcOxP_DB03_G03 (human IgG1) (antibody, V domains shown)
# VH: B1 VH with F29S, Y32F, T57D
# VL: B3 VL with E27Q, L29I, Y30S, N37H, R60H, Q99S
# B37: PcOxP_DB03_G11 (human IgG1) (antibody, V domains shown)
# VH: B1 VH with D31S, T57D
# VL: B1 VL with T24K, A25S, E27Q, T59N
# Target: PC-BSA
# Sequence (P02769 25-607 limits assumed, form in doubt): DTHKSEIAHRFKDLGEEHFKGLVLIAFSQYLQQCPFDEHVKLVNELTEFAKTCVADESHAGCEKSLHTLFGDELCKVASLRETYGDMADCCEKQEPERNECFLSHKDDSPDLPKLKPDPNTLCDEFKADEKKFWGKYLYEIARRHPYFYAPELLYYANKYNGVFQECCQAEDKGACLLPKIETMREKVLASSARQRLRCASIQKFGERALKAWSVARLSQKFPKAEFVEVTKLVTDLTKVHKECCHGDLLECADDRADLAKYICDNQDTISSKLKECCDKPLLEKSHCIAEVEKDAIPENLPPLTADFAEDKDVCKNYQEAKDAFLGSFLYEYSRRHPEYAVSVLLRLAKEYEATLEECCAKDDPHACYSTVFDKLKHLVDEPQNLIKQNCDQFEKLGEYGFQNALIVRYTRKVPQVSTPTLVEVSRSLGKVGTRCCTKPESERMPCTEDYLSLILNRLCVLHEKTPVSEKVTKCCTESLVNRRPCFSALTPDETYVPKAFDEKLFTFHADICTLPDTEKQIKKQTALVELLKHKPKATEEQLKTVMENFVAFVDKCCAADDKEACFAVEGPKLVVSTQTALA
# Assay: ELISA (DELFIA TRF), PC-BSA coated, titrated IgG1
row,Binder,EC50
1,B1,0.413 nM
2,B2,0.423 nM
3,B3,0.417 nM
4,B4,0.244 nM
5,B5,0.274 nM
6,B6,0.264 nM
7,B7,0.426 nM
8,B8,0.857 nM
9,B9,0.407 nM
10,B10,0.231 nM
11,B11,0.456 nM
12,B12,0.672 nM
13,B13,0.664 nM
14,B14,0.344 nM
15,B15,0.636 nM
16,B16,0.317 nM
17,B17,0.401 nM
18,B18,0.64 nM
19,B19,0.257 nM

row,Binder,EC50
1,B20,0.216 nM
2,B21,0.251 nM
3,B22,0.43 nM
4,B23,0.436 nM
5,B24,0.242 nM
6,B25,0.269 nM
7,B26,0.339 nM
8,B27,0.643 nM
9,B28,0.659 nM
10,B29,0.219 nM
11,B30,0.244 nM
12,B31,0.557 nM
13,B32,0.31 nM
14,B33,0.43 nM
15,B34,0.278 nM
16,B35,0.282 nM
17,B36,0.216 nM
18,B37,0.244 nM

# — patent US20250320312A1 (OXITOPE PHARMA B V, published 2025)
